Results as given in publication PMC6395372, “Myosin Va interacts with the exosomal protein spermine synthase” (Bioscience Reports, 2019).

Key:
[1] = target: T1, MyoVa-GTD, wild type (globular tail domain of myosin Va) (human, UniProt Q9Y4I1 1448-1855); experiment: MST; Monolith NT.115, LED power 40%, MST power 60%; 50 nM His-tagged SMS labelled with RED-tris-NTA, serial dilution of MyoVa-GTD; 20 mM HEPES, 150 mM NaCl, 5% glycerol, pH 7.4; triplicate; Hill fit; conditions: both partners purified
T1 construct: Myosin Va, human, wild-type globular tail domain; limits are printed only for the EE two-hybrid construct (1448-1855 of NP_000250.3); In pET28a-TEV; Limits probably 1448-1855 as for the EE construct; also called TEV-treated MyoVa-GTD; source: E. coli BL21(DE3)∆SlyD pRARE2, purified (HiTrap Chelating, TEV cleavage, Superdex 200)
T1 sequence (Q9Y4I1 1448-1855): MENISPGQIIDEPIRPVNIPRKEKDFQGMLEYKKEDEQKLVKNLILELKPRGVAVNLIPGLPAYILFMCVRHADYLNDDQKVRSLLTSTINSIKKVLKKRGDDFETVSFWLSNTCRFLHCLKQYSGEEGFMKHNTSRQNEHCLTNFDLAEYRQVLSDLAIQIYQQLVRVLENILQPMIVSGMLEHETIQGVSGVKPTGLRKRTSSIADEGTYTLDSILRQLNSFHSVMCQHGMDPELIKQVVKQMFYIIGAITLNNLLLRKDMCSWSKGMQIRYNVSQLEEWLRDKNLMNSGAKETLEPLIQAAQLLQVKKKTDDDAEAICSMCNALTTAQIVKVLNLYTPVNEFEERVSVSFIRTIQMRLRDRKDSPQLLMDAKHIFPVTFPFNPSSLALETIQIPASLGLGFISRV

[2] = target: the molecule itself; experiment: SEC; Superdex 75 pg 16/600, 20 mM HEPES, 150 mM NaCl, 5% glycerol, pH 7.4; SMS dimers at Ve ~70 mL

Kd [1]: 3.5 ± 0.5 µM
B1: Spermine synthase (SMS), full length, His-tagged (enzyme, human, UniProt P52788-1 1-366, looked up)
chain: MAAARHSTLDFMLGAKADGETILKGLQSIFQEQGMAESVHTWQDHGYLATYTNKNGSFANLRIYPHGLVLLDLQSYDGDAQGKEEIDSILNKVEERMKELSQDSTGRVKRLPPIVRGGAIDRYWPTADGRLVEYDIDEVVYDEDSPYQNIKILHSKQFGNILILSGDVNLAESDLAYTRAIMGSGKEDYTGKDVLILGGGDGGILCEIVKLKPKMVTMVEIDQMVIDGCKKYMRKTCGDVLDNLKGDCYQVLIEDCIPVLKRYAKEGREFDYVINDLTAVPISTSPEEDSTWEFLRLILDLSMKVLKQDGKYFTQGNCVNLTEALSLYEEQLGRLYCPVEFSKEIVCVPSYLELWVFYTVWKKAKP
modifications: RED-tris-NTA dye label on the His-tag (in the MST assay)
notes: Spermine synthase, human, full-length ORF (NM_004595.4, 253-1353 pb) amplified from a human cDNA library; In pET28a-TEV; the fractions with SMS dimers were used in MST; also called 6xHis-SMS; His-tagged-labeled-SMS; source: E. coli BL21(DE3)∆SlyD pRARE2, purified (HiTrap Chelating, Superdex 75)
stoichiometry N [2]: 2
